B1: DCAF4 (parent)
chain: DSHILLCLMGLAETPGCATLLPAS
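Also: lentivirally expressed fusions sorted by FACS into six bins by GFP to DsRed ratio, PSI derived from sequencing read proportions per bin multiplied by bin number.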

The variants in the data set derive from B1. As to the kind of experiment: protein stability index of a GFP-peptide fusion (GPS, HEK-293T) (PSI 1-6); higher = more stable. As to conditions: c terminus: a fixed tail appended.
For DSHILLCLMGLFETPGCATLLPAS [A12F], the protein stability index was 3.3.

For DSHILLCLMGLNETPGCATLLPAS [A12N], the protein stability index was determined as 1.69.

Regarding DSHILLCLMGLMETPGCATLLPAS [A12M], the protein stability index worked out at 2.66.

Consider DSHILLCLMGLKETPGCATLLPAS [A12K], for which the protein stability index was found to be 1.92.

As to DSHILLCLMGLQETPGCATLLPAS [A12Q], the protein stability index was 2.74.

Consider DSHILLCLMGLCETPGCATLLPAS [A12C], for which the protein stability index came out at 2.96.

For the variant DSHILLCLMGLWETPGCATLLPAS [A12W], the protein stability index was 4.01.

Consider DSHILLCLMGLYETPGCATLLPAS [A12Y], for which the protein stability index turned out to be 4.

Turning to DSHILLCLMGLLETPGCATLLPAS [A12L], the protein stability index was 2.76.

Turning to DSHILLCLMGLEETPGCATLLPAS [A12E], the protein stability index amounted to 2.25.

Regarding DSHILLCLMGLPETPGCATLLPAS [A12P], the protein stability index was 3.88.

For DSHILLCLMGLDETPGCATLLPAS [A12D], the protein stability index came to 2.02.

On to DSHILLCLMGLIETPGCATLLPAS [A12I], for which the protein stability index was 2.11.

Take DSHILLCLMGLSETPGCATLLPAS [A12S]: the protein stability index turned out to be 2.37.

Turning to DSHILLCLMGLRETPGCATLLPAS [A12R], the protein stability index was 2.39.

In the case of DSHILLCLMGLHETPGCATLLPAS [A12H], the protein stability index is 2.59.

In the case of DSHILLCLMGLAYTPGCATLLPAS [E13Y], the protein stability index stood at 3.33.

As for DSHILLCLMGLAGTPGCATLLPAS [E13G], the protein stability index stood at 1.88.

Consider DSHILLCLMGLAITPGCATLLPAS [E13I], for which the protein stability index was determined as 4.29.

As for DSHILLCLMGLAHTPGCATLLPAS [E13H], the protein stability index is 2.77.

Take DSHILLCLMGLAFTPGCATLLPAS [E13F]: the protein stability index was found to be 2.49.

Regarding DSHILLCLMGLATTPGCATLLPAS [E13T], the protein stability index was determined as 2.89.

As to DSHILLCLMGLACTPGCATLLPAS [E13C], the protein stability index was 2.88.

Regarding DSHILLCLMGLALTPGCATLLPAS [E13L], the protein stability index is 2.42.

Consider DSHILLCLMGLASTPGCATLLPAS [E13S], for which the protein stability index was determined as 3.26.

Take DSHILLCLMGLAKTPGCATLLPAS [E13K]: the protein stability index was determined as 2.59.

Take DSHILLCLMGLAMTPGCATLLPAS [E13M]: the protein stability index is 3.96.

As for DSHILLCLMGLAATPGCATLLPAS [E13A], the protein stability index is 3.31.

For DSHILLCLMGLANTPGCATLLPAS [E13N], the protein stability index is 2.83.

As to DSHILLCLMGLADTPGCATLLPAS [E13D], the protein stability index came out at 3.06.

With DSHILLCLMGLAPTPGCATLLPAS [E13P], the protein stability index was 2.

Consider DSHILLCLMGLAVTPGCATLLPAS [E13V], for which the protein stability index came to 4.1.

For the variant DSHILLCLMGLAQTPGCATLLPAS [E13Q], the protein stability index amounted to 2.36.

Turning to DSHILLCLMGLAETPDCATLLPAS [G16D], the protein stability index was 3.45.

For the variant DSHILLCLMGLAETPQCATLLPAS [G16Q], the protein stability index turned out to be 2.81.

Regarding DSHILLCLMGLAETPECATLLPAS [G16E], the protein stability index was found to be 3.54.

For DSHILLCLMGLAETPHCATLLPAS [G16H], the protein stability index is 2.37.

For DSHILLCLMGLAETPNCATLLPAS [G16N], the protein stability index worked out at 2.77.

As for DSHILLCLMGLAETPLCATLLPAS [G16L], the protein stability index was 2.05.

As to DSHILLCLMGLAETPFCATLLPAS [G16F], the protein stability index is 2.85.

With DSHILLCLMGLAETPCCATLLPAS [G16C], the protein stability index is 3.37.

Turning to DSHILLCLMGLAETPACATLLPAS [G16A], the protein stability index worked out at 3.16.

For the variant DSHILLCLMGLAETPRCATLLPAS [G16R], the protein stability index worked out at 2.39.

As to DSHILLCLMGLAETPVCATLLPAS [G16V], the protein stability index is 2.76.

As for DSHILLCLMGLAETPPCATLLPAS [G16P], the protein stability index came to 4.04.

With DSHILLCLMGLAETPMCATLLPAS [G16M], the protein stability index was 2.6.

With DSHILLCLMGLAETPKCATLLPAS [G16K], the protein stability index stood at 1.38.

For DSHILLCLMGLAETPTCATLLPAS [G16T], the protein stability index was 1.99.

With DSHILLCLMGLAETPICATLLPAS [G16I], the protein stability index worked out at 2.9.

Regarding DSHILLCLMGLAETPYCATLLPAS [G16Y], the protein stability index came to 2.65.

As for DSHILLCLMGLAEDPGCATLLPAS [T14D], the protein stability index came out at 1.92.

With DSHILLCLMGLAEKPGCATLLPAS [T14K], the protein stability index was 3.42.

Turning to DSHILLCLMGLAENPGCATLLPAS [T14N], the protein stability index came out at 3.05.

Regarding DSHILLCLMGLAEMPGCATLLPAS [T14M], the protein stability index worked out at 2.26.

In the case of DSHILLCLMGLAECPGCATLLPAS [T14C], the protein stability index was 2.24.

As to DSHILLCLMGLAEHPGCATLLPAS [T14H], the protein stability index came out at 3.66.

Take DSHILLCLMGLAEPPGCATLLPAS [T14P]: the protein stability index is 2.53.

DSHILLCLMGLAEEPGCATLLPAS [T14E]: the protein stability index was found to be 2.95.

For DSHILLCLMGLAEVPGCATLLPAS [T14V], the protein stability index came to 2.66.

On to DSHILLCLMGLAEWPGCATLLPAS [T14W], for which the protein stability index worked out at 2.89.

Turning to DSHILLCLMGLAESPGCATLLPAS [T14S], the protein stability index turned out to be 2.47.

For DSHILLCLMGLAEGPGCATLLPAS [T14G], the protein stability index was determined as 2.77.

In the case of DSHILLCLMGLAERPGCATLLPAS [T14R], the protein stability index was 2.05.

Consider DSHILLCLMGLAEYPGCATLLPAS [T14Y], for which the protein stability index worked out at 3.79.

Turning to DSHILLCLMGLAELPGCATLLPAS [T14L], the protein stability index worked out at 3.09.

As for DSHILLCLMGLAEAPGCATLLPAS [T14A], the protein stability index was found to be 2.93.

For the variant DSHILLCLMGLAETPGCRTLLPAS [A18R], the protein stability index came to 3.11.

With DSHILLCLMGLAETPGCNTLLPAS [A18N], the protein stability index came to 2.07.

Consider DSHILLCLMGLAETPGCHTLLPAS [A18H], for which the protein stability index is 2.28.

In the case of DSHILLCLMGLAETPGCVTLLPAS [A18V], the protein stability index is 1.92.

DSHILLCLMGLAETPGCYTLLPAS [A18Y]: the protein stability index is 2.47.

Turning to DSHILLCLMGLAETPGCKTLLPAS [A18K], the protein stability index was determined as 2.82.

In the case of DSHILLCLMGLAETPGCITLLPAS [A18I], the protein stability index is 2.33.

With DSHILLCLMGLAETPGCETLLPAS [A18E], the protein stability index is 2.31.

For the variant DSHILLCLMGLAETPGCQTLLPAS [A18Q], the protein stability index amounted to 2.02.

Consider DSHILLCLMGLAETPGCSTLLPAS [A18S], for which the protein stability index was found to be 1.6.

For the variant DSHILLCLMGLAETPGCLTLLPAS [A18L], the protein stability index turned out to be 3.23.

On to DSHILLCLMGLAETPGCPTLLPAS [A18P], for which the protein stability index came to 2.65.

For the variant DSHILLCLMGLAETPGCGTLLPAS [A18G], the protein stability index is 1.11.

With DSHILLCLMGLAETPGCCTLLPAS [A18C], the protein stability index came to 4.64.

Regarding DSHILLCLMGLAETPGCDTLLPAS [A18D], the protein stability index stood at 2.39.

Take DSHILLCLMGLAETPGCFTLLPAS [A18F]: the protein stability index was found to be 2.32.

As for DSHILLCLMGLAETPGCTTLLPAS [A18T], the protein stability index was 2.3.

As to DSHILLCLMGLAETPGCMTLLPAS [A18M], the protein stability index was 3.66.

As for DSHILLCLMGLAETPGCATLLAAS [P22A], the protein stability index stood at 3.01.

On to DSHILLCLMGLAETPGCATLLKAS [P22K], for which the protein stability index was found to be 3.2.

For the variant DSHILLCLMGLAETPGCATLLHAS [P22H], the protein stability index is 3.65.

On to DSHILLCLMGLAETPGCATLLGAS [P22G], for which the protein stability index amounted to 2.29.

As for DSHILLCLMGTAETPGCATLLPAS [L11T], the protein stability index was determined as 2.7.

Regarding DSHILLCLMGSAETPGCATLLPAS [L11S], the protein stability index was 1.4.

Consider DSHILLCLMGDAETPGCATLLPAS [L11D], for which the protein stability index turned out to be 1.66.

For DSHILLCLMGHAETPGCATLLPAS [L11H], the protein stability index was 2.36.

Regarding DSHILLCLMGQAETPGCATLLPAS [L11Q], the protein stability index stood at 1.66.

In the case of DSHILLCLMGYAETPGCATLLPAS [L11Y], the protein stability index came out at 3.55.
